How the values were obtained:
[1] = target: Xenopus cyclase-associated protein 1 (Xenopus laevis (endogenous in oocytes)); experiment: SEC-MALS + AUC
[2] = target: actin from Xenopus laevis oocytes (Xenopus laevis (endogenous in oocytes)) (UniProt O93400); experiment: SEC-MALS + AUC

- stoichiometry N (XCAP1 molecules in the complex) [1]: 4
- stoichiometry N (XCAP1 per actin (4:4)) [2]: 1
Substance: Xenopus cyclase-associated protein 1 (natural protein)

— paper doi:10.1101/2020.10.02.323899
